Data from the supplement of paper PMC9732359.
± gives the uncertainty stated by the source.

Test: protein stability index of a GFP-peptide fusion (yeast GPS) (PSI 1-4); higher = more stable; sorted into four equal gates, so the index is relative within each strain
In short: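 The protein stability index of a peptide was calculated by multiplying its read frequency in each gate by that gate's number and adding the products. The peptides were tiled 17-residue stretches of yeast proteins, fused downstream of GFP on a Cherry-expressing plasmid and carried in yeast as a pooled library. Mid-log cultures in leucine-free medium were sorted into four equal gates by GFP/Cherry ratio, and each gate's plasmids were PCR-amplified and Illumina-sequenced.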

KQHAVLMLGSVNLPGGI [RRP4]
protein stability index (doa10∆): 2 ± 0.049
protein stability index (pdr5∆): 2.17 ± 0.058
protein stability index (san1∆): 1.94 ± 0.081
protein stability index (ubr1∆): 1.66 ± 0.037

LIRLQMEKLDAKLNHLK [SWI3]
protein stability index (doa10∆): 3.06 ± 0.17
protein stability index (pdr5∆): 3.04 ± 0.15
protein stability index (san1∆): 2.85 ± 0.15
protein stability index (ubr1∆): 3.1 ± 0.2

RSEKSTTNAQTKKLIQK [SRP54]
protein stability index (pdr5∆): 2.82 ± 0.13
protein stability index (san1∆): 2.77 ± 0.15
protein stability index (ubr1∆): 2.94 ± 0.098

SRIRVKIEGCISQVSSI [RPB7]
protein stability index (doa10∆): 1.6 ± 0.1
protein stability index (pdr5∆): 1.75 ± 0.083
protein stability index (san1∆): 1.64 ± 0.11
protein stability index (ubr1∆): 1.76 ± 0.074

CVEWRLPEIAKEIYTTL [YJR042W/NUP85]
protein stability index (doa10∆): 1.4 ± 0.075
protein stability index (pdr5∆): 1.46 ± 0.071
protein stability index (san1∆): 1.52 ± 0.11
protein stability index (ubr1∆): 1.8 ± 0.066

KSMSILNSFVNDIFERI [HTB1]
protein stability index (doa10∆): 2.73 ± 0.1
protein stability index (pdr5∆): 3.18 ± 0.13
protein stability index (san1∆): 2.47 ± 0.2
protein stability index (ubr1∆): 2.94 ± 0.062

FATTKAECISLICSIGL [ECM29]
protein stability index (doa10∆): 1.5 ± 0.059
protein stability index (pdr5∆): 1.97 ± 0.056
protein stability index (san1∆): 1.65 ± 0.13
protein stability index (ubr1∆): 1.77 ± 0.05

SRILYKAIRGMVSHKTA [RPL16B]
protein stability index (doa10∆): 1.26 ± 0.057
protein stability index (pdr5∆): 1.2 ± 0.066
protein stability index (san1∆): 1.22 ± 0.16
protein stability index (ubr1∆): 1.25 ± 0.063

SSAKRSKNTAVSKVQKR [SRP72]
protein stability index (doa10∆): 2.25 ± 0.11
protein stability index (pdr5∆): 2.77 ± 0.11
protein stability index (san1∆): 2.09 ± 0.11
protein stability index (ubr1∆): 2.32 ± 0.069

GEMVGVLAAQSIGEPAT [RPO21]
protein stability index (doa10∆): 2.36 ± 0.087
protein stability index (pdr5∆): 2.55 ± 0.073
protein stability index (san1∆): 2.38 ± 0.066
protein stability index (ubr1∆): 2.58 ± 0.088

RNEKRMFLEFQSTQTDL [SMC2]
protein stability index (doa10∆): 2.53 ± 0.19
protein stability index (pdr5∆): 2.48 ± 0.19
protein stability index (san1∆): 3.24 ± 0.14
protein stability index (ubr1∆): 2.61 ± 0.12

RLTKQAFDWVLSNIEAQ [RPO21]
protein stability index (doa10∆): 3.2 ± 0.12
protein stability index (pdr5∆): 2.93 ± 0.12
protein stability index (san1∆): 3.19 ± 0.091
protein stability index (ubr1∆): 2.8 ± 0.088

KKRNMPLQSIPEIGNRK [SWI1]
protein stability index (doa10∆): 2.62 ± 0.041
protein stability index (pdr5∆): 2.67 ± 0.037
protein stability index (san1∆): 2.81 ± 0.038
protein stability index (ubr1∆): 2.63 ± 0.033

EIEQNTELLDEFIAAVN [RPN10]
protein stability index (doa10∆): 3.36 ± 0.082
protein stability index (pdr5∆): 3.32 ± 0.11
protein stability index (san1∆): 2.79 ± 0.099
protein stability index (ubr1∆): 3.16 ± 0.082

AAVIMRCKIYFFYLRIS [PCI8]
protein stability index (doa10∆): 1.33 ± 0.067
protein stability index (pdr5∆): 1.35 ± 0.06
protein stability index (san1∆): 1.15 ± 0.11
protein stability index (ubr1∆): 1.09 ± 0.088

KTCAKSVIQLCGGINDS [ECM29]
protein stability index (doa10∆): 3.43 ± 0.26

KPKAVARKSKEEREAAA [RPC53]
protein stability index (doa10∆): 2.57 ± 0.19
protein stability index (pdr5∆): 3.12 ± 0.1
protein stability index (san1∆): 2.61 ± 0.15
protein stability index (ubr1∆): 2.64 ± 0.17

DIAGQRDDALVVETITS [RRP42]
protein stability index (doa10∆): 3.1 ± 0.11
protein stability index (pdr5∆): 3.28 ± 0.094
protein stability index (san1∆): 2.27 ± 0.27
protein stability index (ubr1∆): 2.56 ± 0.092

VQGAAPWDTSLEVGRRF [MCD1]
protein stability index (doa10∆): 3.48 ± 0.13
protein stability index (pdr5∆): 3.39 ± 0.13
protein stability index (san1∆): 3.28 ± 0.088
protein stability index (ubr1∆): 3.43 ± 0.16

RPFGVALLIAGHDADDG [PUP2]
protein stability index (doa10∆): 1.66 ± 0.16
protein stability index (pdr5∆): 2.66 ± 0.21
protein stability index (ubr1∆): 2.6 ± 0.14

ENIIQMEMIENRTMDGK [FAS1]
protein stability index (doa10∆): 2.78 ± 0.084
protein stability index (pdr5∆): 2.81 ± 0.11
protein stability index (san1∆): 2.81 ± 0.12
protein stability index (ubr1∆): 3.02 ± 0.069

DKIHARARGPMQVLTRQ [RPB2]
protein stability index (doa10∆): 3.16 ± 0.13
protein stability index (pdr5∆): 3.22 ± 0.12
protein stability index (san1∆): 2.97 ± 0.09
protein stability index (ubr1∆): 3.21 ± 0.19

TGHSQGLVTAVAIAETD [FAS1]
protein stability index (doa10∆): 3.25 ± 0.14
protein stability index (pdr5∆): 3.44 ± 0.078
protein stability index (san1∆): 3.29 ± 0.098
protein stability index (ubr1∆): 3.25 ± 0.095

DEQDDDNVNSTTGSIFE [BRN1]
protein stability index (doa10∆): 2.88 ± 0.16
protein stability index (pdr5∆): 2.92 ± 0.13
protein stability index (san1∆): 2.7 ± 0.15
protein stability index (ubr1∆): 2.85 ± 0.066

KEDTVSWFKQKYDADVL [RPL11A]
protein stability index (doa10∆): 1.5 ± 0.069
protein stability index (pdr5∆): 1.43 ± 0.055
protein stability index (san1∆): 1.57 ± 0.1
protein stability index (ubr1∆): 1.53 ± 0.06

VFKATSSTDEESWFKAL [FAS1]
protein stability index (doa10∆): 2.92 ± 0.13
protein stability index (pdr5∆): 3 ± 0.15
protein stability index (san1∆): 2.75 ± 0.082
protein stability index (ubr1∆): 2.88 ± 0.084

EEAYDNPHDTLNRIKKY [PRP8]
protein stability index (doa10∆): 3.42 ± 0.13
protein stability index (pdr5∆): 3.2 ± 0.093
protein stability index (san1∆): 2.27 ± 0.17
protein stability index (ubr1∆): 3.4 ± 0.085

IAAIIGRLNTLVISLAA [IRR1]
protein stability index (doa10∆): 2.1 ± 0.035
protein stability index (pdr5∆): 1.99 ± 0.036
protein stability index (san1∆): 2.31 ± 0.052
protein stability index (ubr1∆): 1.77 ± 0.03

SAAKASQSRSAKAGLTF [HTA1]
protein stability index (doa10∆): 3.06 ± 0.081
protein stability index (pdr5∆): 2.96 ± 0.084
protein stability index (san1∆): 2.98 ± 0.042
protein stability index (ubr1∆): 3.05 ± 0.034

QAAGGLSIRLTNQLKSL [RPN8]
protein stability index (doa10∆): 2.75 ± 0.085
protein stability index (pdr5∆): 2.57 ± 0.088
protein stability index (san1∆): 2.29 ± 0.11
protein stability index (ubr1∆): 2.19 ± 0.06

ISTACPRLDDVVVDTVE [SMC4]
protein stability index (doa10∆): 3.51 ± 0.071
protein stability index (pdr5∆): 3.43 ± 0.094
protein stability index (san1∆): 3.3 ± 0.058
protein stability index (ubr1∆): 3.46 ± 0.093

EFESELKNVEETQEIKE [ESC2]
protein stability index (doa10∆): 3.54 ± 0.25
protein stability index (pdr5∆): 3.46 ± 0.2
protein stability index (san1∆): 3.25 ± 0.18
protein stability index (ubr1∆): 3.29 ± 0.15

ALECRLASAIASGLLRA [CSN12]
protein stability index (doa10∆): 1.58 ± 0.072
protein stability index (pdr5∆): 2.08 ± 0.082
protein stability index (san1∆): 1.77 ± 0.1
protein stability index (ubr1∆): 1.94 ± 0.075

ILKDLIYRGVLNDENSD [SMC1]
protein stability index (doa10∆): 1.81 ± 0.059
protein stability index (pdr5∆): 2.18 ± 0.076
protein stability index (san1∆): 1.92 ± 0.13
protein stability index (ubr1∆): 2.21 ± 0.066

SIESKLEEHKNHLDELQ [SMC1]
protein stability index (doa10∆): 2.99 ± 0.093
protein stability index (pdr5∆): 2.86 ± 0.13
protein stability index (san1∆): 2.92 ± 0.069
protein stability index (ubr1∆): 3 ± 0.076

ELVKAHLGERAASVIGM [RPC82]
protein stability index (doa10∆): 2.55 ± 0.29
protein stability index (pdr5∆): 2.77 ± 0.28
protein stability index (san1∆): 2.57 ± 0.22
protein stability index (ubr1∆): 2.52 ± 0.086

ELLSSLEGKGSLEEIIA [RPP2B]
protein stability index (doa10∆): 2.27 ± 0.08
protein stability index (pdr5∆): 2.24 ± 0.061
protein stability index (san1∆): 2.63 ± 0.052
protein stability index (ubr1∆): 1.92 ± 0.064

ALTTIKGVGRRYSNLVC [RPS18A]
protein stability index (doa10∆): 2.56 ± 0.089
protein stability index (pdr5∆): 2.4 ± 0.084
protein stability index (san1∆): 2.92 ± 0.12
protein stability index (ubr1∆): 2.62 ± 0.077

KLMDEDSVATVIEVIET [YJR042W/NUP85]
protein stability index (doa10∆): 2.85 ± 0.13
protein stability index (pdr5∆): 3.02 ± 0.16
protein stability index (san1∆): 2.51 ± 0.11
protein stability index (ubr1∆): 2.98 ± 0.15

IHQYLFQEGVVVAKKDF [RPS10A]
protein stability index (doa10∆): 2.29 ± 0.068
protein stability index (pdr5∆): 2.08 ± 0.071
protein stability index (san1∆): 1.93 ± 0.089
protein stability index (ubr1∆): 2.04 ± 0.085

LVTQHKAKYNTPKYRLV [RPL5]
protein stability index (doa10∆): 1.43 ± 0.052
protein stability index (pdr5∆): 1.94 ± 0.064
protein stability index (san1∆): 1.76 ± 0.095
protein stability index (ubr1∆): 1.87 ± 0.058

EELLDNCIETFVAEKTT [SRB6]
protein stability index (doa10∆): 2.43 ± 0.16

YLREDQMIDTSILPTRD [NUT1]
protein stability index (doa10∆): 3.21 ± 0.069
protein stability index (pdr5∆): 2.98 ± 0.068
protein stability index (san1∆): 2.94 ± 0.072
protein stability index (ubr1∆): 2.42 ± 0.048

IDSTDHIRKASSKKSKR [LRP1]
protein stability index (doa10∆): 2.15 ± 0.046
protein stability index (pdr5∆): 1.99 ± 0.039
protein stability index (san1∆): 1.83 ± 0.058
protein stability index (ubr1∆): 2.14 ± 0.038

DTKIDQVNGNIRKVSND [SMC3]
protein stability index (doa10∆): 3.47 ± 0.16
protein stability index (pdr5∆): 3.07 ± 0.24
protein stability index (san1∆): 3 ± 0.12
protein stability index (ubr1∆): 3.27 ± 0.13

ERLMSRPFGVALLIAGH [PUP2]
protein stability index (doa10∆): 2.81 ± 0.28
protein stability index (pdr5∆): 3.08 ± 0.11
protein stability index (san1∆): 2.74 ± 0.1
protein stability index (ubr1∆): 2.95 ± 0.081

LRLGRGINPNTFRIFHN [YDL088C/ASM4]
protein stability index (doa10∆): 2.39 ± 0.062
protein stability index (pdr5∆): 1.88 ± 0.071
protein stability index (san1∆): 1.86 ± 0.11
protein stability index (ubr1∆): 1.65 ± 0.038

GKIVGFDEFMNVVIDEA [SME1]
protein stability index (doa10∆): 3.26 ± 0.063
protein stability index (pdr5∆): 3.33 ± 0.064
protein stability index (san1∆): 3.36 ± 0.056
protein stability index (ubr1∆): 3.39 ± 0.05

KLLKVCLTMFEDRNESV [ECM29]
protein stability index (doa10∆): 2.41 ± 0.14
protein stability index (pdr5∆): 1.99 ± 0.27
protein stability index (san1∆): 2.58 ± 0.078
protein stability index (ubr1∆): 2.66 ± 0.16

AFAFCIPVYCFSHPAHQ [YCG1]
protein stability index (doa10∆): 1.64 ± 0.045
protein stability index (pdr5∆): 1.81 ± 0.044
protein stability index (san1∆): 1.76 ± 0.059
protein stability index (ubr1∆): 1.81 ± 0.045

DGDASKPAFSFGAKPDE [YJL041W/NSP1]
protein stability index (doa10∆): 3.32 ± 0.058
protein stability index (pdr5∆): 3.25 ± 0.058
protein stability index (san1∆): 3.15 ± 0.036
protein stability index (ubr1∆): 3.42 ± 0.043

CFKPMSLTSKRLISQSL [RIP1]
protein stability index (doa10∆): 2.64 ± 0.24
protein stability index (pdr5∆): 2.42 ± 0.16
protein stability index (ubr1∆): 2.1 ± 0.049

VDVLGTHSQTGTQQSNM [SIR4]
protein stability index (doa10∆): 3.12 ± 0.18
protein stability index (pdr5∆): 2.91 ± 0.17
protein stability index (ubr1∆): 3.2 ± 0.067

LDTYRERSKQLNEKFQE [SMC2]
protein stability index (san1∆): 3.37 ± 0.12
